The text below walks through data of paper PMC11926106.

In assay [1] the target is glycinin (soybean). Description: mass photometry; label-free glycinin 0.48 µg/mL adsorbed on a supported lipid bilayer of DOPC, 20 mM NaCl, 5 min incubation; oligomers counted among the membrane-adsorbed particles.
The target in assay [2] is glycinin (soybean). Description: mass photometry; label-free glycinin 0.48 µg/mL adsorbed on a supported lipid bilayer of DOPC, 365 mM NaCl, 5 min incubation; oligomers counted among the membrane-adsorbed particles.

Where “and” joins values, the source holds several entries; their conditions need not be identical. Equal entries are not always repeated.

glycinin, sequence (P04776 20-495): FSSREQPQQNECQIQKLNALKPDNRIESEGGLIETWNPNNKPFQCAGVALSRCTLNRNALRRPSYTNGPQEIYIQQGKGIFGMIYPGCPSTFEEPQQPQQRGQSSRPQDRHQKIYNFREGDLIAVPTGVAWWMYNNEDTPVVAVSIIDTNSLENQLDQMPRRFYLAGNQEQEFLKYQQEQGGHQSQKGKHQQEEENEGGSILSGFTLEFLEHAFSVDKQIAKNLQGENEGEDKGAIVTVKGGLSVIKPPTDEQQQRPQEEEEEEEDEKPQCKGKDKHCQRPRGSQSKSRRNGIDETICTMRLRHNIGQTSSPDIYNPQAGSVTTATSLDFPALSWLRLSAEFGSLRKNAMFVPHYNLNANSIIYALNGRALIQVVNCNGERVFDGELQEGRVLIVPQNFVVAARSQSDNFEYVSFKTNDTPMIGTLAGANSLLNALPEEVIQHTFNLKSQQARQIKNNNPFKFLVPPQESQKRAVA

The term stoichiometry N denotes the number of molecules, sites or subunits per partner or assembly. As for glycinin (natural protein), the stoichiometry N is 3 and 6 in assay [1]; 9 in assay [2].
